Assay results: CN108690134A (UNIV XIAMEN; YANG SHENG TANG CO LTD, dated 2018)

T1: HBsAg (乙肝表面抗原) (Hepatitis B virus)
T1 chain: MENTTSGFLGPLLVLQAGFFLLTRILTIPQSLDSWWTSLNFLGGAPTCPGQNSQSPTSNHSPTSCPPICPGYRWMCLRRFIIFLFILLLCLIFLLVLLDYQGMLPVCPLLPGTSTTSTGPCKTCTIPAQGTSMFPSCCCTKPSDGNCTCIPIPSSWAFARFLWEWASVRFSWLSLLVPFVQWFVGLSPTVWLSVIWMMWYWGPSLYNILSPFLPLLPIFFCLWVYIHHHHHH


Biological target: T1, HBsAg (乙肝表面抗原)
Assay: SPR, Biacore 3000, HBsAg immobilised on CM5 chip (2400 RU), antibody as analyte from 100 nM in 2-fold dilutions

Binder | Kd [nM]
人源化抗体M1D (antibody, V domains shown, also called humanized M1-23) VH: QVQLQESGPGLVKPSETLSLTCTVSGGSITSNFWSWIRQPPGKGLEWIGYISGSGTYTDYNPSLKSRVTISVDTSKNQFSLKLSSVTAADTAVYYCARSHDYGSNDYAFDFWGQGTTVTVSS VL: DIQMTQSPSSLSASVGDRVTITCRATQDISSSLNWYQQKPGKAPKLLIYYANRLQSGVPSRFSGSGSGTDFTLTISSLQPEDFATYYCQQYHSLPLTFGGGTKVEIK | 1.06
人源化抗体M3D (antibody, V domains shown, also called humanized M3-23) VH: QVQLQESGPGLVKPSGTLSLTCAVSGVSISSPYDWTWVRQPPGKGLEWIGRIHGNGGSTSYNPSLKSRVTISVDKSKNQFSLKLSSVTAADTAVYYCVRDETWGQGTLVTVSS VL: not shown | 1.12
